T1: MOCAc-Arg-Pro-Lys-Pro-Tyr-Ala-Nva-Trp-Met-Lys(DNP)-NH2
T1 chain: RPKPYAXWMK

T2: Nma-Pro-Lys-Pro-Leu-Ala-Nva-Trp-Lys(DNP)-NH2
T2 chain: PKPLAXWK


What was measured:
[1] = target: recombinant human ADAM protein (metalloprotease region and disintegrin region expressed in Escherichia coli from plasmid pMDH) (human) (UniProt Q9UKQ2); experiment: cell-based or functional assay
[2] = target: T1, MOCAc-Arg-Pro-Lys-Pro-Tyr-Ala-Nva-Trp-Me …
[3] = target: T2, Nma-Pro-Lys-Pro-Leu-Ala-Nva-Trp-Lys(DNP) …

Row | Molecule | IC50 value (concentration of a test compound which 50% inhibits the protease activity) [1] | fluorescent intensity (excitation 328 nm, 393 nm) after 22 hours at 37 C [2] | fluorescent intensity (excitation 340 nm, measuring 450 nm) after 2 hours at 37 C [3]
1 | N-CBZ-Pro-Leu-Gly-hydroxamate (Sigma C8537) (peptide) | 100 µM |  | 
2 | recombinant human ADAM protein (metalloprotease region and disintegrin region expressed in Escherichia coli from plasmid pMDH) (protein) VQEHEKYIEYYLVLDNGEFKRYNENQDEIRKRVFEMANYVNMLYKKLNTHVALVGMEIWTDKDKIKITPNASFTLENFSKWRGSVLSRRKRHDIAQLITATELAGTTVGLAFMSTMCSPYSVGVVQDHSDNLLRVAGTMAHEMGHNFGMFHDDYSCKCPSTICVMDKALSFYIPTDFSSCSRLSYDKFFEDKLSNCLFNAPLPTDIISTPICGNQLVEMGEDCDCGTSEECTNICCDAKTCKIKATFQCALGECCEKCQFKKAGMVCRPAKDECDLPEMCNGKSGNCPDDRFQVNGF |  | the fluorescent intensity of 70 was shown when the protein was added | the fluorescent intensity in the case of addition of the enzyme solution was 180
